Molecular target: HLA-A2 molecules immunoaffinity-purified from Jesthom cells, with added human β2-microglobulin (human (endogenous in Jesthom) | human)

In the case of HBV core 18-27, synthetic peptide, the Kd is reported as 40 nM.

Reference: article PMC2195672
